Target: T1, TROP2 (Trophoblast cell surface antigen 2) (UniProt P09758 27-323, limits assumed)
T1 sequence (looked up): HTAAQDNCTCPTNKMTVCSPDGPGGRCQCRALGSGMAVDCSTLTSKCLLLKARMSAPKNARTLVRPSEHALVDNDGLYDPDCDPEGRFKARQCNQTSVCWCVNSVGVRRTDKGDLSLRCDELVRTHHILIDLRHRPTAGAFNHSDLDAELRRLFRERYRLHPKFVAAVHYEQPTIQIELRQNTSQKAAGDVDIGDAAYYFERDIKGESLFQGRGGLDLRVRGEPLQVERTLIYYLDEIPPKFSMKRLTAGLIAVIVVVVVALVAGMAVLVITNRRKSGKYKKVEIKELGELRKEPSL
Test: cell-based or functional assay

B1: ADC1 (hRS9 antibody conjugated to CB07-Exatecan) (antibody, human IgG1, kappa, DAR 4.2, V domains shown)
VH: QVQLQQSGSELKKPGASVKVSCKASGYTFTNYGMNWVKQAPGQGLKWMGWINTYTGEPTYTDDFKGRFAFSLDTSVSTAYLQISSLKADDTAVYFCARGGFGSSYWYFDVWGQGTLVTVSS
VL: DIQLTQSPSSLSASVGDRVSITCKASQDVSIAVAWYQQKPGKAPKLLIYSASYRYTGVPDRFSGSGSGTDFTLTISSLQPEDFAVYYCQQHYITPLTFGAGTKVEIKR
modifications: CB07-Exatecan linker-drug conjugated to sulfhydryls of TCEP-reduced cysteines; average DAR (p) 4.2 over the whole antibody; positions not given
With B1 the “growth inhibition EC50 (CCK-8 cell proliferation, 120 h), MDA-MB-453 cells” value was 0.64 µg/mL, the “growth inhibition EC50 (CCK-8 cell proliferation, 120 h), MDA-MB-468 cells” value was 0.158 µg/mL and the “growth inhibition EC50 (CCK-8 cell proliferation, 120 h), MX-1 cells” value was 0.233 µg/mL.

From patent US20250381283A1, “METHOD FOR TREATING SOLID TUMOR” (priority 2022, published 2025)
